The values below come from US20040029280A1.

What is called Kd is the concentration at which binding is half-saturated.

For assay [1], the target named is recombinant Ad5 knob (knob domain of the adenovirus type 5 fiber protein) (adenovirus type 5 (Ad5)) (UniProt P11818). As to the kind of experiment: Biacore analysis.
In assay [2] the target is adenoviral fiber knob on AdCMVLuc (Ad5 vector) virions (adenovirus type 5 (Ad5)) (UniProt P11818). Description: cell-based or functional assay.
In assay [3] the target is Recombinant trimeric Ad5 knob protein with an N-terminal 6-His tag (adenovirus type 5 (Ad5)) (UniProt P11818). Description: ELISA on His-tagged Ad5 knob on Ni-NTA strips, detection with anti-FGF2 antibody and anti-rabbit HRP; control. (In general: In an ELISA, binding on a coated surface is turned into a signal by an enzyme label.)
The target in assay [4] is FGF receptors. Description: cell-based or functional assay.
Assay [5] addresses Recombinant trimeric Ad5 knob protein with an N-terminal 6-His tag (adenovirus type 5 (Ad5)) (UniProt P11818). As to the kind of experiment: ELISA on His-tagged Ad5 knob on Ni-NTA strips, detection with anti-FGF2 antibody and anti-rabbit HRP; wells without knob gave 0.35+0.04.

Take “Fab fragment of 1D6.14 anti-Ad5 knob neutralizing antibody”: in assay [1], the Kd came to 2.1 nM. In assay [2], this substance yielded a block of AdCMV-Luc transduction (luciferase), CVU-1 cells of 20%; a block of AdCMV-Luc transduction (luciferase), KS-SLK cells of over 50%; a block of AdCMV-Luc transduction (luciferase), KSY-1 cells of over 50%; a block of AdCMV-Luc transduction (luciferase), RW376 cells of over 50%. Moreover, in assay [2], the inhibition of AdCMVLuc infection (luciferase), 3T3 cells worked out at 97%; the inhibition of AdCMVLuc infection (luciferase), D54 MG cells was 98.3%; the inhibition of AdCMVLuc infection (luciferase), PANC-1 cells was 98.8%; the inhibition of AdCMVLuc infection (luciferase), SKOV3.1p1 cells turned out to be 69.3%. In addition, the inhibition of AdCMVLuc transfection (luciferase), HUVECs in assay [2] came to 87%.

Consider “FGF2 mutein (C96S) (from UniProt P09038 1-155) (ligand)”, for which the absorbance in assay [3] turned out to be 1.55 absorbance.

For “Fab-FGF2 conjugate (1D6.14 Fab chemically conjugated to FGF2 C96S mutein) (from UniProt P09038 1-155)”, in assay [4], the inhibition by anti-FGF2 antibody of infection by the Ad-Fab-FGF2 complex (luciferase), 3T3 cells amounted to 96.1%; the inhibition by anti-FGF2 antibody of infection by the Ad-Fab-FGF2 complex (luciferase), D54 MG cells was 94%; the inhibition by anti-FGF2 antibody of infection by the Ad-Fab-FGF2 complex (luciferase), PANC-1 cells came to 96.3%; the inhibition by anti-FGF2 antibody of infection by the Ad-Fab-FGF2 complex (luciferase), SKOV3.1p1 cells came to 90.1%. Besides, in assay [5], the absorbance is 3.7 absorbance.
